Source: patent US20260167699A1 (Chugai, published 2026)
Changes are numbered by the printed parent chain.

B1: GpH7-A5/GpH7-B3 variant S298_06M/GpL16-k0 (antibody, human IgG1, kappa)
heavy 1: not shown
heavy 2: not shown
light: DIVMTQSPLSLPVTPGEPASISCQASESLVHSNRNTYLHWYLQKPGQSPQLLIYKVSNRFSGVPDRFSGSGSGTDFTLKISRVEAEDVGVYYCSQNTHVPPTFGQGTKVEIERTVAAPSVFIFPPSDEQLKSGTASVVCLLNNFYPREAKVQWKVDNALQSGNSQESVTEQDSKDSTYSLSSTLTLSKADYEKHKVYACEVTHQGLSSPVTKSFNRGEC
notes: He Ab: heterodimerized IgG1, one H chain mutated
B2: GpH7-A5/GpH7-B3 variant S298_07I/GpL16-k0 (antibody, human IgG1, kappa)
heavy 1: not shown
heavy 2: not shown
light: B1 light
notes: as for B1
B3: GpH7-A5/GpH7-B3 variant S298_08L/GpL16-k0 (antibody, human IgG1, kappa)
heavy 1: not shown
heavy 2: not shown
light: B1 light
notes: as for B1
B4: GpH7-A5/GpH7-B3 variant S298_11K/GpL16-k0 (antibody, human IgG1, kappa)
heavy 1: not shown
heavy 2: not shown
light: B1 light
notes: as for B1
B5: GpH7-A5/GpH7-B3 variant S298_12R/GpL16-k0 (antibody, human IgG1, kappa)
heavy 1: not shown
heavy 2: not shown
light: B1 light
notes: as for B1
B6: GpH7-A5/GpH7-B3 variant S298_14T/GpL16-k0 (antibody, human IgG1, kappa)
heavy 1: not shown
heavy 2: not shown
light: B1 light
notes: as for B1
B7: GpH7-A5/GpH7-B3 variant S298_15Y/GpL16-k0 (antibody, human IgG1, kappa)
heavy 1: not shown
heavy 2: not shown
light: B1 light
notes: as for B1
B8: GpH7-A5/GpH7-B3 variant S298_16H/GpL16-k0 (antibody, human IgG1, kappa)
heavy 1: not shown
heavy 2: not shown
light: B1 light
notes: as for B1
B9: GpH7-A5/GpH7-B3 variant S298_19Q/GpL16-k0 (antibody, human IgG1, kappa)
heavy 1: not shown
heavy 2: not shown
light: B1 light
notes: as for B1
B10: GpH7-A5/GpH7-B3 variant S324_01G/GpL16-k0 (antibody, human IgG1, kappa)
heavy 1: not shown
heavy 2: not shown
light: B1 light
notes: as for B1
B11: GpH7-A5/GpH7-B3 variant S324_02A/GpL16-k0 (antibody, human IgG1, kappa)
heavy 1: not shown
heavy 2: not shown
light: B1 light
notes: as for B1
B12: GpH7-A5/GpH7-B3 variant S324_03V/GpL16-k0 (antibody, human IgG1, kappa)
heavy 1: not shown
heavy 2: not shown
light: B1 light
notes: as for B1
B13: GpH7-A5/GpH7-B3 variant S324_04F/GpL16-k0 (antibody, human IgG1, kappa)
heavy 1: not shown
heavy 2: not shown
light: B1 light
notes: as for B1
B14: GpH7-A5/GpH7-B3 variant S324_06M/GpL16-k0 (antibody, human IgG1, kappa)
heavy 1: not shown
heavy 2: not shown
light: B1 light
notes: as for B1
B15: GpH7-A5/GpH7-B3 variant S324_07I/GpL16-k0 (antibody, human IgG1, kappa)
heavy 1: not shown
heavy 2: not shown
light: B1 light
notes: as for B1
B16: GpH7-A5/GpH7-B3 variant S324_08L/GpL16-k0 (antibody, human IgG1, kappa)
heavy 1: not shown
heavy 2: not shown
light: B1 light
notes: as for B1
B17: GpH7-A5/GpH7-B3 variant S324_09D/GpL16-k0 (antibody, human IgG1, kappa)
heavy 1: not shown
heavy 2: not shown
light: B1 light
notes: as for B1
B18: GpH7-A5/GpH7-B3 variant S324_10E/GpL16-k0 (antibody, human IgG1, kappa)
heavy 1: not shown
heavy 2: not shown
light: B1 light
notes: as for B1

Target: T1, FcγRIIa(R) (human, UniProt P12318 34-217)
T1 construct: extracellular domain; also called 2aR
T1 sequence: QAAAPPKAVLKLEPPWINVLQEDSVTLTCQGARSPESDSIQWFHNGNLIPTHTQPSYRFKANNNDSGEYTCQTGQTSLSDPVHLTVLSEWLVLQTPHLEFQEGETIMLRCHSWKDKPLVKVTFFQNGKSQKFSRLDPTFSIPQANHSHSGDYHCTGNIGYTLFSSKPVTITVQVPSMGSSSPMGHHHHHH
Experiment: SPR, relative to GpH7-A5/GpH7-B3/GpL16-k0 =100

Binder | He/Con 2aR [%]
B1 | 104
B2 | 86.2
B3 | 100
B4 | 91
B5 | 81.6
B6 | 94.2
B7 | 75.7
B8 | 84.7
B9 | 90.9
B10 | 94.4
B11 | 99.9
B12 | 113
B13 | 99.6
B14 | 118
B15 | 109
B16 | 110
B17 | 102
B18 | 99

Target: T2, FcγRIIb (human, UniProt P31994 43-217)
T2 construct: extracellular domain; also called 2b
T2 sequence: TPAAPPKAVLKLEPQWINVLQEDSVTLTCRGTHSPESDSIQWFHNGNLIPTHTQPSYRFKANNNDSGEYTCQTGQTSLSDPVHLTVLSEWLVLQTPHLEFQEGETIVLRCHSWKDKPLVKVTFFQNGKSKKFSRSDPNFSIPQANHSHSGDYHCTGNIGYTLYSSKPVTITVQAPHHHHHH
Experiment: SPR, relative to GpH7-A5/GpH7-B3/GpL16-k0 =100

Binder | He/Con 2b [%]
B1 | 103
B2 | 71.5
B3 | 110
B4 | 62.2
B5 | 58.6
B6 | 79
B7 | 62.2
B8 | 64.4
B9 | 74.3
B10 | 106
B11 | 102
B12 | 128
B13 | 99.9
B14 | 126
B15 | 125
B16 | 117
B17 | 112
B18 | 101

Target: T3, FcγRIa (human, UniProt P12314 16-292)
T3 construct: extracellular domain; also called 1a
Experiment: SPR, relative to GpH7-A5/GpH7-B3/GpL16-k0 =100

T3 sequence (P12314 other isoform, or with tags, fused parts or gaps): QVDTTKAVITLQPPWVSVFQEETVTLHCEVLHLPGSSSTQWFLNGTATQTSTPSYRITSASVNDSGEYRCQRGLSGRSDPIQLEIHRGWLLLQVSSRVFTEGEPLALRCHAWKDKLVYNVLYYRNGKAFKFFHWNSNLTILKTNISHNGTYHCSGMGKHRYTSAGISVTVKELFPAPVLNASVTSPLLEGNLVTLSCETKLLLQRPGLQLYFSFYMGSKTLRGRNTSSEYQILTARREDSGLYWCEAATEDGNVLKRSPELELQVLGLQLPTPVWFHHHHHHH

Binder | He/Con 1a [%]
B1 | 111
B2 | 104
B3 | 104
B4 | 106
B5 | 106
B6 | 104
B7 | 104
B8 | 105
B9 | 106
B10 | 93.2
B11 | 96.9
B12 | 97.7
B13 | 103
B14 | 104
B15 | 96.2
B16 | 97.3
B17 | 97.7
B18 | 98.9

Target: T4, FcγRIIa(H) (human, UniProt P12318 34-217)
T4 construct: extracellular domain; also called 2aH
T4 sequence: T1 sequence with R134H
Experiment: SPR, relative to GpH7-A5/GpH7-B3/GpL16-k0 =100

Binder | He/Con 2aH [%]
B1 | 95.8
B2 | 84.9
B3 | 83
B4 | 63.9
B5 | 67.4
B6 | 96.2
B7 | 71.2
B8 | 80.2
B9 | 88.9
B10 | 110
B11 | 114
B12 | 108
B13 | 106
B14 | 122
B15 | 107
B16 | 106
B17 | 117
B18 | 114
